Drawing on paper PMC2141627, this text covers stoichiometry N for one substance.

In this test the target is laminin 5 (α3β3γ2) purified from SCC25 cell culture medium (human (endogenous in SCC25)) (UniProt Q16787). Description: rotary shadowing electron microscopy.

One may read the stoichiometry N as a count of units in the complex or per binding partner. “NC-1 domain of type VII collagen purified from human amnion (from UniProt Q02388 17-2944) (domain or fragment)”: the stoichiometry N worked out at 1.
